# Reference: the supplement of paper PMC9170038
# Test system: K4 kissing-loop RNA reporter
# Experiment: apparent KD of K4 kissing-loop reporter; higher = weaker reporter binding
# Settings: Eterna round: R107
# Protocol: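 RNA-MaP round R107: designed RNA switches with theophylline, tryptophan, arginine or FMN aptamers are transcribed on-chip within common flanks. They are titrated with a labelled K4 kissing-loop RNA reporter in RNA-MaP buffer (100 mM Tris pH 7.5, 80 mM KCl, 4 mM MgCl2), without ligand or with the indicated ligand. Median apparent KD per design.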
# [1] = input ligand: theophylline 20 uM
# [2] = input ligand: tryptophan 2.4 mM
# 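Also: bound reporter read as fluorescence of individual clusters on recovered sequencing chips by microscopy, with normalized cluster intensities fitted with a binding model.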
Sequence,apparent KD of K4 kissing-loop reporter (input ligand: FMN 200 uM),apparent KD of K4 kissing-loop reporter (input ligand: arginine 13.2 mM),apparent KD of K4 kissing-loop reporter (input ligand: none),apparent KD of K4 kissing-loop reporter [1],apparent KD of K4 kissing-loop reporter [2]
AGAGAUAUAUGAGGAUAUGAGAUAGUUAAUGAGUGAGUUAUAGUGUAGUUUGGUUAGUGAUGUUAUUUAGAAGGCGUGAGUGAUG [reefmullin],140 nM,76.7 nM,131 nM,107 nM,83.3 nM
AGAGUACGAAAGUACUCCUCUACACACUGUCGAGGACCGGUACGGCCGCCACUCGAGUUGAGUGAUGUUCGAUAGUGUGUAGAGA [Omei KL Tryp A SS C v4],66.4 nM,57.3 nM,30 nM,104 nM,142 nM
AGAGUUAUAUGAGGAUAUGGGAUAGUAAAUGAGUGAGUUAUAGUGUAGUUUGUUUAGUGAUGUUAUUUAGAAGGCGUGAGUGAUG [dgnnmullin],193 nM,114 nM,100 nM,113 nM,86.4 nM
AGAGUUUUAUGAGGAUAUGAGAUAGUUAAUGAGUGAGUUAUAGUGUAGUUUGUUUAGUGAUGUUAUUUAGAAGGCGUGAGUGAUG [ssxsmullin],151 nM,95.9 nM,122 nM,132 nM,84.4 nM
AGAUGUUUAGCUCAAAGAACGAAAAUGGAAGGAGCGUGCGAAAGCACAGGUAGGUCGCCAGUGAUGUUGGAACCUGAGCAUCAAA [#SwitchBubble 16 #K4Late],316 nM,274 nM,262 nM,244 nM,230 nM
AGCAGUCACUCGAAAACCAUCGAAGAUGGACGAGGACCGGUACGGCCGCCACUCGGAGUGAUGUUCCGAAGACUGCAAAAUAAAA [#SwitchBubble 16],380 nM,402 nM,433 nM,346 nM,435 nM
AGCCACGACGCGGCCGCCACUGCCAUUAAACGUAAGGCAAAUCUAAUCUUCGAGUGAUGUUCGGGCAGGACCGGGCGGAGACUUG [theeternabot_sameState_KL_Trp_B_18],636 nM,300 nM,478 nM,772 nM,371 nM
AGCCGAAAGGCGAGUGCUGUCACUCCGGAAGGAGCGCUCAAAAGAGCAGGUAGGUCGCCGGAGUGAUGUUCCGGUGCAGCACUCA [Omei KL Arginine A Exc B v4],594 nM,408 nM,580 nM,751 nM,623 nM
AGCGCUGCCUGAGGAUAUAGAGACGAGUGAUGUUCGUGGAUUGAUACCAGUGAUGUUGGUCUAUUUCUAGAAGGCAGGCGAUCGU [Exclusion FMN B GF 3],131 nM,85.6 nM,103 nM,105 nM,103 nM
AGCGUCCCUACGGCCGCCACUGGGAGUGAUGUUCCCAGGUUAGGCCUGAGGAUACUAUGGAUCGCCAGGACCGGGUAGCGACCAA [Zaarin],93.4 nM,71.8 nM,85.4 nM,97.2 nM,83.5 nM
AGCUCAGAGUGACUCGAUAAGAGUCACAAACGAGGACCGGUACGGCCGCCACUCGAAAUAAUGAGAGUGAUGUUCUCGCUGAGCA [#SwitchBubble 2 #StaticStem #K4Late],221 nM,98.6 nM,89 nM,145 nM,793 nM
AGGAGUGAUGUUCCUACAUACACGGUCCGACGAGGACCGGUACGGCCGCCACUCGCGUCCCAGUGAUGUUGGGAUUUGGCGUACG [Exclusion Tryptophan A GF 17],162 nM,155 nM,155 nM,171 nM,154 nM
AGGAUAUAGUGAUGUUAUAUAAGAAGAAAACGAGGACCGGUACGGCCGCCACUCGAAGCGGCUACUAAGAGGGAAAGAAGAGGAA [ExTryptoA.A],174 nM,181 nM,215 nM,294 nM,143 nM
AGGAUCCGUCGACAAAAGUCGACAUAAACCGAGGAUAUGACGAAAGUCAGAAGGUGGUCAUAAGACCAGUGAUGUUGGUGGAUCC [FmnA 14 #SwitchBubble #K4Late],1250 nM,282 nM,494 nM,318 nM,305 nM
AGGAUGUAGUGAUGUUAUAUAAGAAGUAAACGAGGACCGGUACGGCCGCCACUCGAAACGGCUACUAGCGCGUUGCGAGGUGUGC [ExTryptoA.Cf],425 nM,475 nM,808 nM,510 nM,402 nM
AGGAUGUAGUGAUGUUAUAUAAGAAGUAAACGAGGACCGGUACGGCCGCCACUCGAAGCGGCUACUAGCGUGUUGCGAGGUGCGC [ExTryptoA.Cd],370 nM,324 nM,229 nM,230 nM,197 nM
AGGCACGAGCAAGGAUAUCGAGUAGAGUGAUGUUCUGCCUGGGUUGGCUCGGAAGGGCCUUCCCAGCGAGAAGGUGCUCGUGCCU [#2 Same State - FMN A Attempt #16 (HarryS)],189 nM,637 nM,590 nM,674 nM,493 nM
AGGCACGAGCAAGGAUAUCGAGUAGAGUGAUGUUCUGCCUGGGUUGGCUCGUAAGAGCCUUCUCAGCGAGAAGGUGCUCGUGCCU [#2 Same State - FMN A Attempt #20 (HarryS)],217 nM,511 nM,544 nM,511 nM,944 nM
AGGCGGCAUAAUUGACUGAAAAGAAAUUAACGAGGACCGGUACGGCCGCCACUCGAACACCAGUGAUGUUGGUAUGGGAUAAUUU [Exclusion Tryptophan A GF 18],91.6 nM,62.7 nM,52.9 nM,169 nM,47 nM
AGGGAACGCACGGAUACCAGACUCAUAGUGAUGUUGUGGGUAUAAAUUAGCGCAUACACAGUCCCUUGGCAGCCGCUGAAUGGCC [theeternabot_exclusion_KL_Theo_B_1],829 nM,644 nM,971 nM,835 nM,505 nM
AGGGACUCUUCGGAGUCCCGGUCAAGGGAUACCAGUGAUGUUGGUCACCCUUGGCAGCCCAGAAACCAAGCCACCAAAGGUGGCA [Omei KL Theo A Exc A v3],117 nM,97.9 nM,97.3 nM,103 nM,107 nM
AGUACAAUGGCGGCCGCCACUCAACGCAGAUCAAAGAUCUGCGAUCACUCAGUGAUGUUGAGUGAGAGGACCGGGCCUUUGUACA [Omei KL Tryp B SS B v6],354 nM,272 nM,307 nM,311 nM,135 nM

Sequence,apparent KD of K4 kissing-loop reporter (input ligand: FMN 200 uM),apparent KD of K4 kissing-loop reporter (input ligand: arginine 13.2 mM),apparent KD of K4 kissing-loop reporter (input ligand: none),apparent KD of K4 kissing-loop reporter [1],apparent KD of K4 kissing-loop reporter [2]
AGUACAAUGGCGGCCGCCACUCAACGCAGAUCAAAGAUCUGCGUUCACUCAGUGAUGUUGAGUGAGAGGACCGGGCCUUUGUACA [Omei KL Tryp B SS B v5],221 nM,180 nM,190 nM,170 nM,141 nM
AGUAGUUGGGCGGCCGCCACUGGAACAGCUUUGUCAAAGACAGAGCACUAGAGUGAUGUUCUAGCUAGGACCGGGUCCAACUACA [whbob_SS_Tryp_B_t17],460 nM,206 nM,533 nM,503 nM,991 nM
AGUAUGUAAUAUGGCAUAUUUAGAACUGAAGGAGCGCCGAAUAAGGCAGGUAGGUCGCGGUUUUAUGAGUGAUGUUCUUGUUUAA [KL-SSArg-A24],156 nM,125 nM,149 nM,329 nM,111 nM
AGUCCACUCUAAAGAGUGGACCUAAGGGAUACCAGUGAUGUUGGUCACCCUUGGCAGCCCGCUGUCAUCGAUAAAGAUGGCAGAA,136 nM,121 nM,120 nM,147 nM,120 nM
AGUGAUGUAUGGCGGUGUGUCACUUAAAAUCAGGAUAUAUAAACAAAUAGAAGGGAUGGCGGAGUGAUGUUCCGCCGGCCGCCAU [FMN A Exl V2],173 nM,147 nM,157 nM,165 nM,159 nM
AGUGCUAUGACGGCCGCCACUGAUUACCAGUGAUGUUGGUAGUCCAUUUACGACUUCCUGAUAACCAGGACCGGGUCAUAGGUCG [Tryp B Ex t2],702 nM,613 nM,807 nM,450 nM,201 nM
AGUGGACGUUACCGGAGUGAUGUUUCGGAUACCAGACACGAAAGUGUCCCUUGGCAGCCGUAGUGAUGUUACGGAGUUCACUAAA [KL-XTheo-A12 #KL 2],125 nM,61.5 nM,103 nM,88.7 nM,85.1 nM
AGUGUUAGGUUAGAUACCAGCCGUCUGUAGAUAAUCCUCAGACCGCCAGUGAUGUUGGCAGGCCCUUGGCAGCUAACAGAACAGA [Orbediqu],238 nM,206 nM,210 nM,154 nM,214 nM
AGUGUUAGGUUAGAUACCAGCCGUCUGUGAGUAACCCACAGACCGCCAGUGAUGUUGGCAGGCCCUUGGCAGCUAACAGGACAGA [Anesarerza],211 nM,226 nM,210 nM,152 nM,211 nM
AGUUAUGUAUCAGGAUAUUAGUGAUGUUUGUUUUUGUUAGUGAUGUUGAUAUUUGUUUUAUGUAUUUAAGAAGGGAUUGAGAUGU [qsszmullin],68.2 nM,20.5 nM,39.1 nM,29.4 nM,52.4 nM
AUACGCGAUAGCGUAUAUAACUUUUCAGAAGGAGCGUGGAAGUACACAGGUAGGUCGCUGAAUAUAGGACUAGUGAUGUUAGUUA [JR_Nu_SSArginiA_Sub025],195 nM,220 nM,235 nM,218 nM,186 nM
AUAGUGAGCUCGGCCGCCACUCCACUAUGUCAACAGUAGCUCUGUCAUAACCAGUGAUGUUGGUUGAGGACCGGGAGUUAAGACU [theeternabot_exclusion_KL_Trp_B_34],193 nM,164 nM,198 nM,195 nM,201 nM
AUCAUUAGUUCGGCCGCCACUCCAGUGAUGUUGGAGGGACGCAUAAUAUGCGCGCGGCCAACUAGGAGGACCGGGAACUUUAAGC [Intionge],120 nM,122 nM,118 nM,126 nM,103 nM
AUGACGGGUAGUGAUGUUAUCCACGAUGGGAAGGAUAUCAACCGUGUGAGAAGGUCCUUAUCGGUGCGGCACAUGCAGGUACUAC [theeternabot_sameState_KL_FMN_A_41],215 nM,264 nM,346 nM,452 nM,268 nM
AUGGACUCUUCGGAGUCCGCCUUAAGGGAUACCAGUGAUGUUGGUCACCCUUGGCAGCCUAGAAAGGAAGCCACCAAAGGUGGCA [Omei v1 mod #OpenEnded #Sliding],105 nM,114 nM,128 nM,160 nM,101 nM
AUGGGUUGUUGAAGGAGCGCCGCCAGUGAUGUUGGGAGUUAGAUACCAGUGAUGUUGGGCCGGCAGGUAGGUCGCGGCGAUUUAU [Exclusion Arginine B GF 19],347 nM,170 nM,484 nM,332 nM,344 nM
AUGUAUGAAUUAGGAUAUCGUGAGCCAUGCAUAUAUAUGAUAAAUGGAUAUGUCGUAGUGAUGUUACGAGAAGGAGUGUGGAGUA [KL-XFMN-B2],69.2 nM,73.6 nM,74.7 nM,90 nM,50.6 nM
AUGUGGAGCGACGUUUCGGGAUAUCGGGAAGGAGCGCUGAUAACGGCAGGUAGGUCGCCUGGUCCAGUGAUGUUGGGCAUGCAUU [Exclusion Arg A GF 24],150 nM,135 nM,270 nM,185 nM,155 nM
AUUAAUUUCAGAGGAUAUCGUUAUUUUUUUUAUUUUAUUCAUUUAUGCAGUGAUGUUGCUAUUAUUCGAGAAGGCUGAUUUAUAA [JR_ExcFMNB_Sub005],97.9 nM,126 nM,62.9 nM,146 nM,74.1 nM
AUUCGUUUUUGUGAUACCAGACAUGUGAGUGAUGUUUACAUAUAUAUUUAAUAUUUAGCUGUCCCUUGGCAGCACUGUUUAUUUA [JR_ExcTheophyB_Sub003],343 nM,384 nM,393 nM,444 nM,291 nM
AUUUAAUGUAUAGAUUAUAUACAUAAUUCAGAGGAUAUGCGAAGAAGCAGAAGGCUGGUUGCAGUGAUGUUGCUUUUAUAAUUUA [JR_SSFMNA_Sub009],32.8 nM,152 nM,85.9 nM,171 nM,59.9 nM
